Laboratory results taken from article PMC12596195, “Mei5–Sae3 stabilizes both active and inactive forms of Dmc1 filaments independently of its impact on ATP hydrolysis” (Nucleic Acids Research, 2025).

Key:
[1] = target: T1, ScDmc1 (Saccharomyces cerevisiae Dmc1, wild type) (Saccharomyces cerevisiae) (UniProt P25453)
T1 sequence: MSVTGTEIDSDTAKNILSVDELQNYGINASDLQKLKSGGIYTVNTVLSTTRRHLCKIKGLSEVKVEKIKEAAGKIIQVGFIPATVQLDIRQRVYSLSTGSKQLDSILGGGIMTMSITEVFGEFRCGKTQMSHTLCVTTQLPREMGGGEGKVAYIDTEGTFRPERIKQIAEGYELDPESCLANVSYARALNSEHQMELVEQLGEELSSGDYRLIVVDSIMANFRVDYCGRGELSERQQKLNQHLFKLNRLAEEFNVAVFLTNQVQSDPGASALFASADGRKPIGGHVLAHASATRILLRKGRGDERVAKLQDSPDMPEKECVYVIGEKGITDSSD

[2] = target: T1, ScDmc1 (Saccharomyces cerevisiae Dmc1, wild type) (Saccharomyces cerevisiae); remark: listed apart in the source
[3] = target: T1, ScDmc1 (Saccharomyces cerevisiae Dmc1, wild type) (Saccharomyces cerevisiae); remark: listed apart in the source
[4] = target: T1, ScDmc1 (Saccharomyces cerevisiae Dmc1, wild type) (Saccharomyces cerevisiae); remark: listed apart in the source
[5] = target: T1, ScDmc1 (Saccharomyces cerevisiae Dmc1, wild type) (Saccharomyces cerevisiae); remark: listed apart in the source
[6] = target: T1, ScDmc1 (Saccharomyces cerevisiae Dmc1, wild type) (Saccharomyces cerevisiae); remark: listed apart in the source

3H-ADP retained on Dmc1 filaments (nitrocellulose filter) after adding 0.5, 1 or 2 µM Mei5–Sae3; value at 2 µM [1]: 65% | D-loop yield with versus without 0.5 µM Mei5–Sae3 (3 µM Dmc1, 0.2 µM RPA, 70 µM Ca2+, 5 mM Mg2+, ATP) [2]: 2.5 fold | negative-stain EM: average Dmc1 filament length with versus without Mei5–Sae3, ADP as cofactor (compressed filaments) [3]: 2.3 fold | negative-stain EM: average Dmc1 filament length with versus without Mei5–Sae3, AMP–PNP as cofactor [3]: 1.5 fold | apparent KD of Dmc1 for ssDNA by fluorescence polarisation, fold reduction by 400 nM Mei5–Sae3 (ADP in place of ATP) [4]: 1.5 fold | apparent KD of Dmc1 for ssDNA by fluorescence polarisation, fold reduction by 400 nM Mei5–Sae3 (AMP–PNP in place of ATP) [4]: 1.5 fold | apparent KD of Dmc1 for ssDNA by fluorescence polarisation, fold reduction by 400 nM Mei5–Sae3 (ATP, 70 µM Ca2+, 100 mM NaCl) [4]: 2 fold | negative-stain EM: average Dmc1 filament length with 2 µM Mei5–Sae3 against the control without it (ATP, 70 µM Ca2+, RPA) [5]: 1.5 fold | negative-stain EM: share of Dmc1 filaments in the extended (active) form with 2 µM Mei5–Sae3 (ATP, 70 µM Ca2+, RPA; 17% without Mei5–Sae3) [5]: 76% | ssDNA-dependent ATP hydrolysis by Dmc1 (TLC), with versus without Mei5–Sae3, 70 µM Ca2+ [6]: 2 fold
B1: ScMei5–Sae3 heterodimer (complex)
chain 1: MHNQEEWLDKDKTLVNEEENTCINHSYTKKDTNNYRVGKSGIKDLKKPTNQKEIAIKNRELTKQLTLLRQENNHLQQACKILSENKIIENRKSIEKWRTICEMELSFILNSTLIKINRMGGYKDFLEKEMEAKKRRLEYQIDNGMEDQICEIKESDDFRQLSEVEKQEWESQMNEQLKELEKKKIAELEKLNKVLHDSEGKDFGMAELCTRLKLDYSLIFPQ
chain 2: MNYLETQLNKKQKQIQEYESMNGNLIKMFEQLSKEKKNDETPKKISSTYIKELKEYNELRDAGLRLAQIIADEKQCKIKDVFEEIGYSMKD
